The values that follow are results of earlier work, collected in patent US20200222508A1 (Arecor Limited, priority 2016, published 2020).

For the data set the following is noted: in vivo.

“Dulaglutide: GLP-1 analogue consisting of GLP-1(7-37) covalently linked to an Fc fragment of human IgG4, SEQ ID NO: 6”: the circulating half-life entry is reported as “approximately 5 days”.

Regarding “Lixisenatide: analogue of exendin-4, proline omitted at position 38, six lysine residues added at C-terminal, SEQ ID NO: 8”, the circulating half-life was 2 to 4 h. For the substance “Albiglutide: GLP-1 dimer fused to human albumin, SEQ ID NO: 5”, the circulating half-life is 96 to 170 h.
